# Assay results taken from patent US20250011428A1.
# B1: CD3_4 (antibody, human IgG1, lambda)
# heavy: EVQLVESGGGLVQPGGSLKLSCAASGFTFNTYAMNWVRQASGKGLEWVGRIRSKYNNYATYYADSVKDRFTISRDDSKSTLYLQMNSLKTEDTAVYYCVRHGNFGNSYVSWFAYWGQGTLVTVSSASTKGPSVFPLAPSSKSTSGGTAALGCLVKDYFPEPVTVSWNSGALTSGVHTFPAVLQSSGLYSLSSVVTVPSSSLGTQTYICNVNHKPSNTKVDKRVEPKSCDKTHTCPPCPAPELCCHPSVFLFPPKPKDTLMISRTPEVTCVVVDVSHEDPEVKFNWYVDGVEVHNAKTKPREEQYCGCYRVVSVLTVLHQDWLNGKEYKCKVSNKALPAPIEKTISKAKGQPREPQVYTLPPSRDELTKNQVSLTCLVKGFYPSDIAVEWESNGQPENNYKTTPPVLDSDGSFFLYSKLTVDKSRWQQGNVFSCSVMHEALHNHYTQKSLSLSPGK
# light: QAVVTQEPSLTVSPGGTVTLTCRSSTGAVTTSNYANWVQQKPGQAPRGLIGGTNKRAPWTPARFSGSLLGDKAALTLSGAQPEDEAEYFCALWYSNLWVFGGGTKLTVLGQPKAAPSVTLFPPSSEELQANKATLVCLISDFYPGAVTVAWKADSSPVKAGVETTTPSKQSNNKYAASSYLSLTPEQWKSHRSYSCQVTHEGSTVEKTVAPTECS
# What was measured:
# [1] = molecular target: Gamma receptors FcγRI, FcγRII, and FcγRIII expressed on THP-1 cells; experiment: cell-based or functional assay
# hC1q (human) = hC1q (human) (UniProt P02745); experiment: SPR Biacore T200; IgG amine-coupled on CM5, hC1q as analyte; response normalized to parental (=100)
# Chain of hC1q (human) (P02745 23-245 limits assumed, chain 1 of 3): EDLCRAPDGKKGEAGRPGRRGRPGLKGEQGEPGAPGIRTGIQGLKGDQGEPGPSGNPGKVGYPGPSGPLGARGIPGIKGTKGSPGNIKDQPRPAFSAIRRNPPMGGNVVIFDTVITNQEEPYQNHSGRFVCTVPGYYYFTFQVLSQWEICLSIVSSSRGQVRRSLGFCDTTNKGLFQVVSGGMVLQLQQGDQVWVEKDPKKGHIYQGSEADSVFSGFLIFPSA
# Chain of hC1q (human) (P02746 28-253 limits assumed, chain 2 of 3, further chain): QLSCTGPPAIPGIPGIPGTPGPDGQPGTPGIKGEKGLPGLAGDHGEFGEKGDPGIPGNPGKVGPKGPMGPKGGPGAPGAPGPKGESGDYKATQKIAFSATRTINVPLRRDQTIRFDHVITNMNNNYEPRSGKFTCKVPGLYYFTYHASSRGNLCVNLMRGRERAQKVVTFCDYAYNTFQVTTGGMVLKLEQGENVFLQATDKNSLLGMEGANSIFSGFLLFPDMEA
# Chain of hC1q (human) (P02747 29-245 limits assumed, chain 3 of 3, further chain): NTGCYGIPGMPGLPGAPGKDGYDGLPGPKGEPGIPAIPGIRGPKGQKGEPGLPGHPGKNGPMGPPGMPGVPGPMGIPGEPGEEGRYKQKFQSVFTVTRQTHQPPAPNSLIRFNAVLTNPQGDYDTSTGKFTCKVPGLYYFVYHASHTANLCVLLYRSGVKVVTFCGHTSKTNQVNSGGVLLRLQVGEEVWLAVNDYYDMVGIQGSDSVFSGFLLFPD
binder,measurement,setting,value
B1,Maximum response in RGA assay (LU),[1],24900 LU
same,Maximum response at 20 nM hC1q (RU),hC1q (human),9 RU
